According to patent US20150152398, “Endoribonuclease and Methods of Use Thereof” (The Regents of the University of California, published 2015):
Positions count from the first letter of the chain named.

Experiments:
TtCas6A (TTHA0078, Cas6) [1] = molecular target: T1, TtCas6A (TTHA0078, Cas6) (Thermus thermophilus HB8); assay: structure; crystal structure of cleaved R1 product complex, 2:1 in crystal; conditions: chain copies: 2 stated (dimer in solution); label: 5'-32P (EMSA); hairpin
T1 chain: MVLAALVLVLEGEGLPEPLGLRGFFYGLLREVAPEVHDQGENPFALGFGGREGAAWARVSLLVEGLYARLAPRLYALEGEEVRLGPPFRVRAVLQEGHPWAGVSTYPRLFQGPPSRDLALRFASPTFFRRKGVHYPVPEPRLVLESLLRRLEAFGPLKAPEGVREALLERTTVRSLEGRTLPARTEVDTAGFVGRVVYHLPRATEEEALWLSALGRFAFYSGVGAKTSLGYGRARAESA
Excerpt: (§1) To determine how TtCas6A and TtCas6B bind and cleave their RNA substrates, we solved crystal structures of these proteins both alone and in complexes with their cognate RNAs (FIG. 23A, FIG. 30). For TtCas6A, we obtained a structure of the enzyme bound to a substrate mimic based on the R1 repeat sequence, consisting of the R1 stem-loop flanked by two additional nucleotides on either end of the stem. Cleavage of the substrate mimic RNA was prevented by introducing a 2′-deoxyribonucleotide at the G28 position, thereby removing the 2′-hydroxyl nucleophile required for the cleavage reaction. In addition to the substrate mimic complex, a crystal structure of a complex of TtCas6A and a cleaved RNA product was obtained when full-length R1 repeat was bound to wild-type TtCas6A and allowed to undergo cleavage during subsequent complex purification and crystallization. Finally, we determined the crystal structure of the TtCas6A H37A mutant, lacking a critical active site residue, in the absence of bound RNA. For TtCas6B, we determined crystal structures of the wild-type enzyme alone and in complex with a product of the R3 repeat cleavage reaction.

TtCas6B H42A = molecular target: T2, TtCas6B H42A (Thermus thermophilus HB8, H42A); assay: cleavage_in_vitro; repeat R1; conditions: chain copies: 2 inferred; hairpin
T2 chain: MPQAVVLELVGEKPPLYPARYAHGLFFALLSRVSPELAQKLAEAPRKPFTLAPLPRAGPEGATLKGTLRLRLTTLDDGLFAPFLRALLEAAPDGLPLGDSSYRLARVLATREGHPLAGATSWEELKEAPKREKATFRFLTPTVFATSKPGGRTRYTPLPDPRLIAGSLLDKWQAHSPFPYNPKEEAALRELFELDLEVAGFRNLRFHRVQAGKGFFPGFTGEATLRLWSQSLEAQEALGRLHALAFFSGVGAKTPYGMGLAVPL
Excerpt: FIG. 22 illustrates that TtCas6A and TtCas6B both cleave repeats R1 and R3 and retain their cleaved products. (A) Sequences and predicted secondary structures of T. thermophilus CRISPR repeats. Sites of cleavage are indicated with blue arrows. TtCas6e (TTHB192) cleaves repeat R2, while TtCas6A (TTHA0078) and TtCas6B (TTHB231) both cleave repeats R1 and R3. (B) Cleavage product binding affinities of TtCas6A and TtCas6B enzymes. Maltose binding protein (MBP)-fused TtCas6A or TtCas6B were bound to in 5′-radiolabelled, vitro transcribed R1 and R3 RNAs. Bound and unbound fractions were resolved by electrophoresis on a native polyacrylamide gel and visualized by phosphorimaging. The data for these and all subsequent binding assays were fit with standard binding isotherms (solid line). […] RNA cleavage was monitored using denaturing polyacrylamide gel electrophoresis. […]
(§2) To shed light on the catalytic mechanism of TtCas6A and TtCas6B, we performed cleavage assays using wild type proteins as well as active site mutants TtCas6A H37A and TtCas6B H42A using repeat R1 as a substrate (FIG. 2C). The first order rate constant determined under single-turnover conditions for wild type TtCas6A (3.2 min⁻¹) and TtCas6B (3.7 min⁻¹) are in good agreement with first order rate constants previously determined for PaCas6f and TtCas6e. […]

TtCas6A H37A = molecular target: T3, TtCas6A H37A (Thermus thermophilus HB8, H37A); assay: cleavage_in_vitro; almost inactive; rate enhanced about 360-fold with 500 mM imidazole; conditions: chain copies: 2 inferred; hairpin
T3 chain: T1 chain with H37A
Excerpt: Sites of cleavage are indicated with blue arrows. TtCas6e (TTHB192) cleaves repeat R2, while TtCas6A (TTHA0078) and TtCas6B (TTHB231) both cleave repeats R1 and R3. (B) Cleavage product binding affinities of TtCas6A and TtCas6B enzymes. Maltose binding protein (MBP)-fused TtCas6A or TtCas6B were bound to in 5′-radiolabelled, vitro transcribed R1 and R3 RNAs. Bound and unbound fractions were resolved by electrophoresis on a native polyacrylamide gel and visualized by phosphorimaging. The data for these and all subsequent binding assays were fit with standard binding isotherms (solid line). Error bars on each data point denote standard error of the mean (SEM) from three independent experiments. (C) Experiments to confirm single turnover. RNA cleavage assays were carried out at indicated protein:RNA ratios. RNA cleavage was monitored using denaturing polyacrylamide gel electrophoresis. […]
as §2

TtCas6A (TTHA0078, Cas6) [2] = molecular target: T1, TtCas6A (TTHA0078, Cas6); assay: structure; crystal structure of substrate mimic complex, 2:1 in crystal; conditions: chain copies: 2 stated (dimer in solution); hairpin
Excerpt: as §1

TtCas6A (TTHA0078, Cas6) [3] = molecular target: T1, TtCas6A (TTHA0078, Cas6); assay: 5' truncation series, FIG. 5; conditions: chain copies: 2 stated (dimer in solution); hairpin
TtCas6A (TTHA0078, Cas6) [4] = molecular target: T1, TtCas6A (TTHA0078, Cas6); assay: EMSA; Kd in FIG. 25D only; conditions: chain copies: 2 stated (dimer in solution); hairpin
TtCas6B (TTHB231, Cas6) = molecular target: T4, TtCas6B (TTHB231, Cas6) (Thermus thermophilus HB8); assay: structure; crystal structure of R3 product complex, 2:2; conditions: chain copies: 2 stated (dimer in solution); label: 5'-32P (EMSA); hairpin
T4 chain: T2 chain with A42H

TtCas6A (TTHA0078, Cas6) [5] = molecular target: T1, TtCas6A (TTHA0078, Cas6); assay: EMSA; deletion of nt 1-8 had little effect on affinity; conditions: chain copies: 2 stated (dimer in solution); hairpin

**Q.** Does GUUGCAAGGGAUUGAGCCCCGUAAGGGGAUUGCGAC (ssRNA) [R1 repeat RNA (Tt_R1)] bind (TtCas6A (TTHA0078, Cas6) [1])?
**A.** binds

**Q.** With GUUGCAAGGGAUUGAGCCCCGUAAGGGGAU (ssRNA) [R1 nt 1-30] as the binder, how does the activity (TtCas6B H42A) read?
**A.** ~300 fold cleavage defect

**Q.** What about the activity (TtCas6A H37A) of the same binder?
**A.** ~17000 fold cleavage defect

**Q.** Does AGCCCCGUAAGGGGAU (ssRNA, 2'-deoxy at G28) [R1 substrate mimic (nt 15-30, 2'-deoxy G28)] bind (TtCas6A (TTHA0078, Cas6) [2])?
**A.** binds

**Q.** Which binding signal (TtCas6A (TTHA0078, Cas6) [3]) does the source give for AGGGAUUGAGCCCCGUAAGGGGA (ssRNA) [R1 nt 7-29] here?
**A.** 2.3 fold stronger than nt 8-29

**Q.** GAGCCCCGUAAGGGGAU (ssRNA) [R1 deletion of nt 1-13] was tested. Which “fold increase in Kd relative to full R1” value (TtCas6A (TTHA0078, Cas6) [4]) did it give?
**A.** ~900 fold higher Kd than full R1

**Q.** Does GUUGCAAACCUCGUUAGCCUCGUAGAGGAUUGAAAC (ssRNA) [R3 repeat RNA (Tt_R2 in Example 1)] bind (TtCas6B (TTHB231, Cas6))?
**A.** binds

**Q.** Does GGAUUGAGCCCCGUAAGGGGAU (ssRNA) [R1 deletion of nt 1-8] bind (TtCas6A (TTHA0078, Cas6) [5])?
**A.** binds
